We go through two molecules from publication PMC12086512 (Protein Science : A Publication of the Protein Society, 2025).

The term Kd denotes the equilibrium constant for the complex coming apart. Lower therefore signals higher affinity. Broadly, the EC50 is the concentration that produces a half-maximal response.

For assay [1], the target named is full-length p67 of Theileria parva with a C-terminal His-tag (Theileria parva, strain not told, UniProt Q4MZ78). Description: BLI.
A further assay has as its target ubiquitin (Homo sapiens (assumed; species not …, UniProt P0CG48). Description: ELISA. On the technique in general: ELISA stands for enzyme-linked immunosorbent assay.
The target in the next assay is bovine serum albumin (Bos taurus, UniProt P02769). Description: ELISA.
Sequence of bovine serum albumin (P02769 25-607): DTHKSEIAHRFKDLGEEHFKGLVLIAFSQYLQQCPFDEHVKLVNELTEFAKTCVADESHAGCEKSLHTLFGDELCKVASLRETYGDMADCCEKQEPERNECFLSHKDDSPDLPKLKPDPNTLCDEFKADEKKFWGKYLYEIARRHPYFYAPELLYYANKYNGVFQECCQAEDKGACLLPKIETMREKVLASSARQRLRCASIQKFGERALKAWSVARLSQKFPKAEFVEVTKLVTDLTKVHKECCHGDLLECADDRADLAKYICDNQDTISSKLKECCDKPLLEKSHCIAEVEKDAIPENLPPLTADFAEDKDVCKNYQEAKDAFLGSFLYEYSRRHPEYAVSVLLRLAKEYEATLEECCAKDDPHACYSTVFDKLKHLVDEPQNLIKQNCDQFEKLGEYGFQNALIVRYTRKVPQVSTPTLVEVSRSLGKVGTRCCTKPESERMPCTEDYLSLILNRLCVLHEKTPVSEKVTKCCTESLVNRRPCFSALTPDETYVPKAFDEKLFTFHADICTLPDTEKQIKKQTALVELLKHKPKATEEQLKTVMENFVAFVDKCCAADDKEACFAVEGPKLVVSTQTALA
Assay [2] deals with His-p67C (p67 residues 572-651) (Theileria parva, strain not told, UniProt Q4MZ78). Briefly: ELISA.
For assay [3], the target named is T1, p67C^1 (p67 residues 572-612) (Theileria parva, UniProt Q4MZ78).
T1 chain: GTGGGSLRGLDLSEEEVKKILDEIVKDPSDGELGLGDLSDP
Description: ELISA.

The target in a further assay is the fusion tag (GST) (Schistosoma japonicum (assumed, usual …, UniProt P08515 = GST)). Briefly: ELISA.

B1: Fab B11 (Fab, V domains shown)
VH: EVQLVESGGGLVQPGGSLRLSCAASGFNISSSSIHWVRQAPGKGLEWVASISPYYSSTSYADSVKGRFTISADTSKNTAYLQMNSLRAEDTAVYYCARGPGYAMDYWGQGTLVTVSS
VL: DIQMTQSPSSLSASVGDRVTITCRASQSVSSAVAWYQQKPGKAPKLLIYSASSLYSGVPSRFSGSRSGTDFTLTISSLQPEDFATYYCQQYYYAPITFGQGTKVEIK
In turn, B1 had a Kd in assay [1] of 0.079 µM. Also, the binding result with ubiquitin is given as “no binding”; in the assay with bovine serum albumin it was “no binding”; in assay [3], “binds”. This molecule yielded an EC50 in assay [2] of 0.025 µM.

B2: Fab B11 displayed on phage (Fab, V domains shown)
VH: B1 VH
VL: B1 VL
On to B2, for which, in the assay with the fusion tag (GST), the binding result is recorded as “no binding”.
